Experiments:
[1] = target: T1, PpsR (Rubrivivax gelatinosus) (UniProt I0HUJ5); assay: DNase I footprinting; conditions: EMSA: 5 nM probe, 25 mM Tris-HCl pH 8.0, 100 mM NaCl, 2 mM MgCl2, 6% glycerol, 50 ug/ml heparin, room temperature 30 min (5 mM DTT if reduced); footprint: …
T1 sequence: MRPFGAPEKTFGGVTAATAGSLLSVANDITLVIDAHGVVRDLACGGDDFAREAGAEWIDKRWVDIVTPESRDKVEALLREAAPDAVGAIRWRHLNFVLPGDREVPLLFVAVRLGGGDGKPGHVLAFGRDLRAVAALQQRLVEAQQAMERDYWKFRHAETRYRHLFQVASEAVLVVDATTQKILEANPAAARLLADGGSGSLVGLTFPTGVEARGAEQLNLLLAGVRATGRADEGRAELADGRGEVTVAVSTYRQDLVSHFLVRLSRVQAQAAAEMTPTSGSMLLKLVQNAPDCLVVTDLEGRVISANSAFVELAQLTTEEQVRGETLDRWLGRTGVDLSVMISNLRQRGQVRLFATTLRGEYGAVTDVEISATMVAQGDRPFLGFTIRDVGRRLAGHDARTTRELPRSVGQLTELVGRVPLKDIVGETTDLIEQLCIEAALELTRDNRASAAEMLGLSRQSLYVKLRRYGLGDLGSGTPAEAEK

[2] = target: Rubrivivax gelatinosus PpsR (Rubrivivax gelatinosus); assay: SEC; Superose 12 in 20 mM Tris-HCl (pH 8.0), 500 mM NaCl, 6% glycerol, 0.5 ml/min; molecular weight estimated from a standard curve (Gel Filtration Standard, BioRad)
[3] = system: PpsR (Rubrivivax gelatinosus); assay: EMSA; conditions: EC50, EMSA: 5 nM probe, 25 mM Tris-HCl pH 8.0, 100 mM NaCl, 2 mM MgCl2, 6% glycerol, 50 ug/ml heparin, room temperature 30 min (5 mM DTT if reduced), footprint: …
[4] = system: PpsR C436A (Rubrivivax gelatinosus); assay: EMSA; conditions: EC50, EMSA: 5 nM probe, 25 mM Tris-HCl pH 8.0, 100 mM NaCl, 2 mM MgCl2, 6% glycerol, 50 ug/ml heparin, room temperature 30 min (5 mM DTT if reduced), footprint: …

| stoichiometry N [2] | Substance | binding [1] | K half ([3]; oxidized (untreated)) [nM] | K half ([3]; reduced, 5 mM DTT) [nM] | K half ([4]; oxidized (untreated)) [nM] | K half ([4]; reduced, 5 mM DTT) [nM] |
| --- | --- | --- | --- | --- | --- | --- |
| – | ACCAGTTTCCGTGCTCGACCCGCACGTGGGTTGGCTTCTGTAGCCCTCGGATTTCTCCCTACCGACATGTGTAACGCTACGCTGACAGGGTGGGGGCGTCAACATGTCGTGACACCCCCGCAACGCTGAATGTGTCGCGGCTCTGATCTATGACAAATTGCCGGGGTCCGGCGGGCCTCGGGAGCTCT (double strand) [pucB promoter footprint probe] | binds | – | – | – | – |
| – | ATCCTGCTTTCCGGCCGCGCGCGGGGCTGCGGCATCCGACTTCATCAGCATCCGTCGAGCTTGTCCTAAGGCAGGGATTGTGTCAACGACAATTGACGCTCTGTTTTGTCAAGCGCAAGATTCAGCCCCATGGCAAGGCCCGCGTTGTCCGCTGTAGCGGAGTTGCTCAAACCGATCACCTGGTTCCCTCCGAT (double strand) [crtI promoter footprint probe] | binds | – | – | – | – |
| 4 | Rubrivivax gelatinosus PpsR (natural protein) | – | – | – | – | – |
| – | crtI promoter EMSA probe | – | 80.5 | 86.5 | 146 | 147 |
| – | pucB promoter EMSA probe | – | 49.8 | 63.3 | 94.1 | 93.3 |

From article PMC4452267
